Assay [1] deals with Fluorescein-SRC1–1 Coactivator Peptide 3. Nature of the assay: fluorescence polarisation; TR+T3 or the complex TR+T3:PDIA1 titrated from 1 to 7,000 nM into 50 nM fluorescein-SRC1 peptide; buffer A or B; triplicate.
Assay [2] addresses hTRα full length labelled with FITC (human) (UniProt P10827). Nature of the assay: fluorescence polarisation; PDIA1 titrated from 0.012 to 25 μM into 50 nM TR-FITC, without T3; 20 mM sodium phosphate pH 7.4, 150 mM NaCl, 5 mM MgCl2, 1 mM DTT; 20°C; Hill fit. On the technique in general: In fluorescence polarisation assays a small probe gives low polarisation when free and higher when bound to something large.

Assay [3] has as its target hTRβΔAB (amino acids 102–461) labelled with FITC (human) (UniProt P10828). The description is as above.
The target of assay [4] is hTRα full length, recombinant (human) (UniProt P10827). Nature of the assay: SEC; analytical gel filtration, Superdex 200 HR 10/300, buffer A or B with 150 mM NaCl and 2 mM DTT, 0.5 mL/min; hydrodynamic radii from calibration standards; proteins alone and mixed.
The target in assay [5] is hTRβΔAB (amino acids 102–461), recombinant (human) (UniProt P10828). The assay is described as above.
Assay [6] concerns the target hTRα full length labelled with FITC (human) (UniProt P10827). Nature of the assay: fluorescence polarisation; PDIA1 titrated from 0.012 to 25 μM into 50 nM TR-FITC pre-incubated with 3 times molar excess of T3; 20 mM sodium phosphate pH 7.4, 150 mM NaCl, 5 mM MgCl2, 1 mM DTT; 20°C; Hill fit.
Assay [7] deals with hTRβΔAB (amino acids 102–461) labelled with FITC (human) (UniProt P10828). The assay is described as above.
Assay [8] addresses hTRα full length labelled with FITC (human) (UniProt P10827). The experiment in a line: fluorescence polarisation; reduced PDIA1 (pre-incubated with 0.5 mM DTT for 30 min) titrated from 0.012 to 25 μM into 50 nM TR-FITC; 20 mM sodium phosphate pH 7.4, 150 mM NaCl, 5 mM MgCl2, no DTT in the buffer; with and without T3 by the methods, not given for the values.
Assay [9] concerns the target hTRβΔAB (amino acids 102–461) labelled with FITC (human) (UniProt P10828). Described as above.
Assay [10] deals with hTRα full length labelled with FITC (human) (UniProt P10827). The experiment in a line: fluorescence polarisation; oxidised PDIA1 (pre-incubated with 0.5 mM H2O2 for 30 min) titrated from 0.012 to 25 μM into 50 nM TR-FITC; 20 mM sodium phosphate pH 7.4, 150 mM NaCl, 5 mM MgCl2, no DTT in the buffer; with and without T3 by the methods, not given for the values.
The target in assay [11] is hTRβΔAB (amino acids 102–461) labelled with FITC (human) (UniProt P10828). Described as above.
Assay [12] concerns the target T1, hTRβΔAB (amino acids 102–461), recombinant (human, UniProt P10828 102-461).
T1 construct: numbers fit TRβ1 (461 aa); Unlabelled protein, used in SEC, DLS and, pre-incubated with T3, in the SRC1 anisotropy; also called TRβDL; source: E. coli BL21(DE3), purified (Talon resin, SEC Superdex 75)
T1 sequence (looked up): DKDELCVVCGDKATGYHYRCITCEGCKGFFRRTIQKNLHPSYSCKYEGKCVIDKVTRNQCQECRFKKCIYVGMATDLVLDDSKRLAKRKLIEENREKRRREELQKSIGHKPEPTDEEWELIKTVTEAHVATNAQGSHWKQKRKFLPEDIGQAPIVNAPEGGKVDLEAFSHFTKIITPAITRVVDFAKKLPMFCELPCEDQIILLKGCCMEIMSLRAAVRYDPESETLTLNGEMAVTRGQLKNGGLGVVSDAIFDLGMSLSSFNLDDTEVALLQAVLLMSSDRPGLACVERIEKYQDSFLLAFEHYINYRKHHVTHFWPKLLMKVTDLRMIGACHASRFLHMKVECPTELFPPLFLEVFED
The experiment in a line: fluorescence polarisation; TR+T3 or the complex TR+T3:PDIA1 titrated from 1 to 7,000 nM into 50 nM fluorescein-SRC1 peptide; buffer A or B; triplicate. The following applies: both partners purified.

Primed or numbered codes have the meaning given here. Ends that are not written are not given here. FITC′ = fluorescein isothiocyanate label

“TRα+T3:PDIA1 complex (from UniProt P10827-2 1-410; P07237 18-508)”: the Kd in assay [1] was determined as 700 nM.
“hTRα full length, recombinant (from UniProt P10827-2 1-410) (receptor)”: the Kd in assay [1] was determined as 290 nM.
For “hPDIA1 full length, recombinant (from UniProt P07237 18-508) (enzyme)”, the Kd in assay [2] is 2050 nM; in [3] it was 2710 nM; in [6] it was 1970 nM; in assay [7], 2810 nM; in assay [8] it was 10700 nM; in assay [9] it was 4540 nM. Moreover, the Kd in [10] is 7900 nM; in assay [11], over 102000 nM. The stoichiometry N in [4] and in [5] was 1 throughout.
Turning to “TRβ+T3:PDIA1 complex (from UniProt P10828 102-461; P07237 18-508)”, the Kd in assay [1] stood at 390 nM.

B1: Fluorescein-SRC1–1 Coactivator Peptide 3 (peptide)
peptide: {FITC′}-KYSQTSHKLVQLLTTTAEQQL
notes: also called SRC1 peptide; CoA peptide; source: bought: Life-technologies
Turning to B1, the Kd in assay [12] was found to be 680 ± 60 nM.

As a reminder, the Kd is the equilibrium constant for the complex coming apart. The term stoichiometry N denotes the number of molecules, sites or subunits per partner or assembly.

The record behind these values is PMC6331412, “Protein Disulfide Isomerase Modulates the Activation of Thyroid Hormone Receptors” (Frontiers in Endocrinology, 2018).
